B2: monomeric CRP (mCRP) (natural protein, UniProt P02741 19-224, looked up)
chain: QTDMSRKAFVFPKESDTSYVSLKAPLTKPLKAFTVCLHFYTELSSTRGYSIFSYATKRQDNEILIFWSKDIGYSFTVGGSEILFEVPEVTVAPVHICTSWESASGIVEFWVDGKPRVRKSLKKGYTVGAEASIILGQEQDSFGGNFEGSQSLVGDIGNVNMWDFVLSPDEINTIYLGGPFSPNVLNWRALKYEVQGEVFTKPQLWP
notes: C-reactive protein, monomeric (dissociated, denatured) form; Same protein in all assays: purified mCRP in solution or coated on plates; for SPR with the C1q peptides pentameric CRP was coupled to the chip and turned into mCRP by urea/EDTA, because mCRP precipitated in acetate buffer; also called monomeric C-reactive protein; urea-denatured mCRP; source: urea-denatured mCRP on the microplate; on …

Test [1] has as its target T1, human complement component C1q (human, UniProt P02745 23-245; P02746 28-253; P02747 29-245).
T1 construct: complement C1q, A chain, human; complement C1q, B chain, human; complement C1q, C chain, human; also called human C1q; copies: 6 + 6 + 6
Briefly: SPR; Biacore T200; C1q coupled to a CM5 chip; mCRP or peptides a.a.35-47, a.a.199-206 injected at 30 μl/min in PBS with 0.05% P-20; steady-state curve for a.a.35-47. As to conditions: both partners purified. A general note: Surface plasmon resonance follows binding to a sensor surface in real time, without labels.

The target of the test “monomeric CRP (mCRP)” is B2. Briefly: SPR; Biacore T200; CRP immobilised on a CM5 chip and denatured to mCRP by 200 s of 8 M urea and 5 mM EDTA; peptides A08, B78, A08-C injected at 30 μl/min in PBS with 0.05% P-20. As to conditions: both partners purified.

T1 sequence (P02745 23-245, chain 1 of 3): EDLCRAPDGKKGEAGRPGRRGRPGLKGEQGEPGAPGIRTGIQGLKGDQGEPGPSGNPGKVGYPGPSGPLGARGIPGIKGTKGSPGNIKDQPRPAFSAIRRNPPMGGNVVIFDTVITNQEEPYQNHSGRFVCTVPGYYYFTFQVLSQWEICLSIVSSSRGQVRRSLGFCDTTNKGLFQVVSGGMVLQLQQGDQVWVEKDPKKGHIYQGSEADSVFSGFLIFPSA
T1 sequence (P02746 28-253, chain 2 of 3): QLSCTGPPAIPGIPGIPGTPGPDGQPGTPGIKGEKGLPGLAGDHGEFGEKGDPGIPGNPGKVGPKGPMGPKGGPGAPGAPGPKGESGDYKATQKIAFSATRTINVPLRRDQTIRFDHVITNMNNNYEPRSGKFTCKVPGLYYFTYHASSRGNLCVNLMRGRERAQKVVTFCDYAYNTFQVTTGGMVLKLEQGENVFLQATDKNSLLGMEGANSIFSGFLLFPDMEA
T1 sequence (P02747 29-245, chain 3 of 3): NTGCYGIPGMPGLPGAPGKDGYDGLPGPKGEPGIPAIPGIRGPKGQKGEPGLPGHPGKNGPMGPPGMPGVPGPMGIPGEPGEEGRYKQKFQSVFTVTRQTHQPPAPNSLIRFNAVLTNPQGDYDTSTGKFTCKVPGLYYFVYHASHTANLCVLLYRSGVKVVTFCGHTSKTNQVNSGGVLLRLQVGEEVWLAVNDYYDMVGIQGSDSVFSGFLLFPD

B1: peptide 35-47 of mCRP (peptide)
peptide: VCLHFYTELSSTR
notes: peptide 35-47 derived from mCRP (C-reactive protein); Biotinylated and nonbiotinylated peptides were synthesized; also called a.a.35-47; mCRP a.a.35-47; source: synthetic peptide (GenScript, >95% purity)
By Kd is commonly meant the free concentration of one partner at which half of the binding sites on the other are occupied at equilibrium, for simple one-to-one binding. The molecule B1 yielded a Kd in test [1] of 2940 nM.
On the same count and under the same terms, under B2 stands 0.0737 nM.

B3: peptide B78 (peptide)
peptide: PGKVGPKGPMGPK
notes: peptide from the collagen like region (CLR) of the C1q-B chain; Biotinylated and nonbiotinylated peptides were synthesized; source: synthetic peptide (GenScript, >95% purity)
Regarding B3, the Kd with monomeric CRP (mCRP) is 3500 µM. That is a millimolar value.

B4: peptide 199-206 of mCRP (peptide)
peptide: FTKPQLWP
notes: peptide 199-206 derived from mCRP (C-reactive protein); Biotinylated and nonbiotinylated peptides were synthesized; also called a.a.199-206; source: synthetic peptide (GenScript, >95% purity)
The molecule B4 registered a Kd in test [1] of 890000 nM.

B5: peptide A08 (peptide)
peptide: GRPGRRGRPGLKG
notes: peptide from the collagen like region (CLR) of the C1q-A chain; Biotinylated and nonbiotinylated peptides were synthesized; also called C1qA08; source: synthetic peptide (GenScript, >95% purity)
In turn, B5 came in with a Kd with monomeric CRP (mCRP) of 4.7 µM.
